From patent US11278600B2, “Human alpha-galactosidase variants” (Codexis, Inc., priority 2014, dated 2022)

Tests used:
Format in all cases: biochemical
[1] = HTP-analysis of yeast culture supernatants, no challenge (MUGal hydrolysis)
Method in brief: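 GLA variants were expressed in INVSc1 yeast grown in SD-Ura broth with glucose at 30° C., and culture supernatants were collected after 66-84 h. Supernatant was mixed with McIlvaine buffer pH 4.8 and MUGal (2 mM stock) in 50 mM citrate, 200 mM KCl, pH 4.6, incubated at 37° C. for 30-180 minutes, then quenched with sodium carbonate.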

[2] = HTP-analysis of supernatants pretreated with acid (MUGal hydrolysis); settings: for Relative Activity of GLA Variants After Challenge at pH 4.2: activity of the variant/activity of Rd2BB (SEQ ID NO: 10), yeast culture supernatant; for Relative Activity of GLA Variants After Challenge at pH 3.5: activity of the variant/activity of Rd7BB (SEQ ID NO: 44)
Method in brief: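 Yeast INVSc1 supernatant, GLA variants; acid challenge: McIlvaine pH 3.3-4.3, 37° C., 1-3 h. Assay: MUGal in McIlvaine pH 4.8 plus citrate pH 4.3, 37° C., 30-180 min, Na2CO3 stop, Ex 355/Em 448 nm.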

[3] = HTP-analysis of supernatants pretreated with base (MUGal hydrolysis); settings: for Relative Activity of GLA Variants After Challenge at pH 7.6: activity of the variant/activity of Rd2BB (SEQ ID NO: 10), yeast culture supernatant; for Relative Activity of GLA Variants After Challenge at pH 7.5: activity of the variant/activity of Rd7BB (SEQ ID NO: 44)
Method in brief: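 GLA variants were secreted by transformed INVSc1 yeast grown 66-84 h at 30° C. Supernatants were exposed to neutral-to-basic buffers (pH 7.0-9.7) at 37° C for 1-18 h, then assayed with MUGal in acidic citrate/McIlvaine buffer, with fluorescence read after quenching.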

[4] = HTP-analysis of supernatants pretreated with bovine serum (MUGal hydrolysis); settings: activity of the variant/activity of Rd2BB (SEQ ID NO: 10), yeast culture supernatant
Description: Yeast (INVSc1) cells transformed with vectors expressing GLA and GLA variants using the lithium acetate method were selected on SD-Ura agar plates. After 72 h incubation at 30° C. colonies were placed into the wells of Axygen® 1.1 ml 96-well deep well plates filled with 200 μl/well SD-Ura broth (2 g/L SD-Ura, 6.8 g/L yeast nitrogen base without amino acids [Sigma Aldrich]), 3.06 g/L sodium dihydrogen phosphate, 0.804 g/L disodium hydrogen phosphate, pH 6.0 supplemented with 6% glucose. The cells were allowed to grow for 20-24 hours in a Kuhner shaker (250 rpm, 30° C., and 85% relative humidity). Overnight culture samples (20 μL) were transferred into Corning Costar® 96-well deep plates filled with 380 µL of SD-ura broth supplemented with 2% glucose. The plates were incubated for 66-84 h in a Kuhner shaker (250 rpm, 30° C., and 85% relative humidity). The cells were then pelleted (4000 rpm×20 min), and the supernatants isolated and stored at 4° C. prior to analysis.
GLA variants were challenged with bovine serum to simulate the conditions the variants encounter following infusion into a patient. First, 20 μL of yeast culture supernatant and 80 μL, of bovine serum were added to the wells of a 96-well round bottom plate. The plates were sealed and incubated at 37° C. for 1 h. For the assay, 50 μL of serum-challenged sample was mixed with 25 μL, of 1 M citrate buffer pH 4.3 and 25 μL, of 4 mM MUGal in McIlvaine buffer pH 4.8. The reactions were mixed briefly and incubated at 37° C. for 180 minutes, prior to quenching with 100 μL, of 1 M sodium carbonate. Hydrolysis was analyzed using a SpectraMax® M2 microplate reader monitoring fluorescence (Ex. 355 nm, Em. 448 nm).

[5] = activity of the variant/activity of Rd2BB (SEQ ID NO: 10), yeast culture supernatant
[6] = activity of the variant/activity of Rd7BB (SEQ ID NO: 44)

Row | Molecule | Relative Activity of GLA Variants After No Challenge (NC) [1, 5] | Relative Activity of GLA Variants After Challenge at pH 4.2 [2] | Relative Activity of GLA Variants After Challenge at pH 7.6 [3] | Relative Activity of GLA Variants After Challenge with Serum [4] | Relative Activity of GLA Variants After No Challenge (NC) [1, 6] | Relative Activity of GLA Variants After Challenge at pH 3.5 [2] | Relative Activity of GLA Variants After Challenge at pH 7.5 [3]
1 | 237 (protein, Synthetic Polypeptide sequence of Variant No. 237 of mature Human GLA) LDNGLARTPTMGWLHWERFMCNLDCQEEPDSCISEKLFMEMAELMVSEGWKDAGYEYLCIDDCWMAPQRDSEGRLQADPQRFPHGIRQLANYVHSKGLKLGIYADVGNKTCAGFPGSFGYYDIDAQTFADWGVDLLKFDGCYCDSLENLADGYKHMSLALNRTGRSIVYSCEWPLYMWPFQKPNYTEIRQYCNHWRNFADIDDSWASIKSILDWTSRNQERIVDVAGPGGWNDPDMLVIGNFGLSWNQQVTQMALWAIMAAPLFMSNDLRHISPQAKALLQDKDVIAINQDPLGKQGYQLRKGDNFEVWERPLSGDAWAVAMINRQEIGGPRSYTIPVASLGKGVACNPGCFITQLLPVKRKLGFYDWDSRLRSHINPTGTVLLQLENTMQMSLKDLL | +++ (+++ = >2.5 relative activity over Rd2BB (SEQ ID NO: 10)) | +++ (+++ = >2.5 relative activity over Rd2BB (SEQ ID NO: 10)) | +++ (+++ = >2.5 relative activity over Rd2BB (SEQ ID NO: 10)) | +++ (+++ = >2.5 relative activity over Rd2BB (SEQ ID NO: 10)) |  |  | 
2 | 240 (protein, Synthetic Polypeptide sequence of Variant No. 240 of mature Human GLA) LDNGLARTPTMGWLHWERFMCNLDCQEEPDSCISEKLFMEMAELMVSEGWKDAGYEYLCIDDCWMAPQRDSEGRLQADPQRFPHGIRQLANYVHSKGLKLGIYADVGNKTCAGFPGSFGYYDIDAQTFADWGVDLLKFDGCYCDSLENLADGYKHMSLALNRTGRSIVYSCEWPLYMWPFQKPNYTEIRQYCNHWRNFADIDDSWASIKSILDWTSFNQERIVDVAGPGGWNDPDMLVIGNFGLSWNQQVTQMALWAIMAAPLFMSNDIRHISPQAKALLQDKDVIAINQDPLGKQGYQLRQGDNFEVWERPLSGLAWAVAMINRQEIGGPRSYTIAVASLGKGVACNLACFITQLLPVKRKLGFYEWTSRLKSHINPTGTVLLQLENTMQMSLKDLL | − (− = <0.5 relative activity over Rd2BB (SEQ ID NO: 10)) | + (+ = 0.5 to 1.5 relative activity over Rd2BB (SEQ ID NO: 10)) | + (+ = 0.5 to 1.5 relative activity over Rd2BB (SEQ ID NO: 10)) | + (+ = 0.5 to 1.5 relative activity over Rd2BB (SEQ ID NO: 10)) |  |  | 
3 | 238 (protein, Synthetic Polypeptide sequence of Variant No. 238 of mature Human GLA) LDNGLARTPTMGWLHWERFMCNLDCQEEPDSCISEKLFMEMAELMVSEGWKDAGYEYLCIDDCWMAPQRDSEGRLQADPQRFPHGIRQLANYVHSKGLKLGIYADVGNKTCAGFPGSFGYYDIDAQTFADWGVDLLKFDGCYCDSLENLADGYKHMSLALNRTGRSIVYSCEWPLYMWPFQKPNYTEIRQYCNHWRNFADIDDSWASVKSILDWTSFNQERIVDVAGPGGWNDPDMLVIGNFGLSWNQQVTQMALWAIMAAPLFMSNDLRHISPQAKALLQDKDVIAINQDPLGKQGYQLRQGDNFEVWERPLSGLAWAVAVINRQEIGGPRSYTIAVASLGGGVACNPACFITQLLPVKRKLGLYEWTSRLKSHVNPTGTVLLQLENTMQMSLKDLL | ++ (++ = 1.5 to 2.5 relative activity over Rd2BB (SEQ ID NO: 10)) | +++ (+++ = >2.5 relative activity over Rd2BB (SEQ ID NO: 10)) | +++ (+++ = >2.5 relative activity over Rd2BB (SEQ ID NO: 10)) | ++ (++ = 1.5 to 2.5 relative activity over Rd2BB (SEQ ID NO: 10)) |  |  | 
4 | 239 (protein, Synthetic Polypeptide sequence of Variant No. 239 of mature Human GLA) LDNGLARTPTMGWLHWERFMCNLDCQEEPDSCISEKLFMEMAELMVSEGWKDAGYEYLCIDDCWMAPQRDSEGRLQADPQRFPHGIRQLANYVHSKGLKLGIYADVGNKTCAGFPGSFGYYDIDAQTFADWGVDLLKFDGCYCDSLENLADGYKHMSLALNRTGRSIVYSCEWPLYMWPFQKPNYTEIRQYCNHWRNFADIDDSWASVKSILDWTSFNQEKIVDVAGPGGWNDPDMLVIGNFGLSWDQQVTQMALWAIMAAPLFMSNDLRHISPQAKALLQDKDVIAINQDPLGKQGYQLRQGDNFEVWERPLSGLAWAVAIINRQEIGGPRSYTIAVASLGDGVACNPACFITQLLPVKRKLGLYEWTSRLKSHVNPTGTVLLQLENTMQMSLKDLL | +++ (+++ = >2.5 relative activity over Rd2BB (SEQ ID NO: 10)) | +++ (+++ = >2.5 relative activity over Rd2BB (SEQ ID NO: 10)) | +++ (+++ = >2.5 relative activity over Rd2BB (SEQ ID NO: 10)) | ++ (++ = 1.5 to 2.5 relative activity over Rd2BB (SEQ ID NO: 10)) |  |  | 
5 | 658 (protein, Synthetic Polypeptide sequence of Variant No. 658 of mature Human GLA) LDNGLARTPTMGWLHWERFMCNLDCQEEPDSCISEKLFEEMAERMVTEGWKDAGYEYLCIDDCWMAPQRDSEGRLQADPQRFPHGIRQLANHVHSKGLKLGIYADVGNKTCAGFPGSFGYYDIDAQTFADWGVDLLKFDGCYCDSLENLADGYKHMSLALNRTGRPIVYSCEWPLYMWPFQKPNYTEIRQYCNHWRNFADIDDSWASIKSILDWTSRNQERIVDVAGPGGWNDPDMLVIGNFGLSPDQQVTQMALWAIMAAPLFMSNDLRAISPQAKALLQDKDVIAINQDPLGKQGYQLRKGDNFEVWERPLSGDAWAVAIINRQEIGGPRSYTIPVASLGKGVACNPACFITQLLPVKRQLGFYNWTSRLKSHINPTGTVLLQLENTMQTSLKDLL |  |  |  |  | + (>0.5 to 1.5 relative activity over Rd7BB (SEQ ID NO: 44)) | + (>0.5 to 1.5 relative activity over Rd7BB (SEQ ID NO: 44)) | + (>0.5 to 1.5 relative activity over Rd7BB (SEQ ID NO: 44))
6 | 659 (protein, Synthetic Polypeptide sequence of Variant No. 659 of mature Human GLA) LDNGLARTPTMGWLHWERFMCNLDCQEEPDSCISEKLFMEMAERMVTEGWKDAGYEYLCIDDCLMAPQRDSEGRLQADPQRFPHGIRQLANHVHSKGLKLGIYADVGNKTCAGFPGSFGYYDIDAQTFADWGVDLLKFDGCYCDSLENLADGYKHMSLALNRTGRPIVYSCEWPLYMWPFQKPNYTEIRQYCNHWRNFADIDDSWASIKSILDWTSRNQERIVDVAGPGGWNDPDMLVIGNFGLSWDQQVTQMALWAIMAAPLFMSNDLRAISPQAKALLQDKDVIAINQDPLGKQGYQLRKGDNFEVWERPLSGDAWAVAIINRQEIGGPRSYTIPVASLGKGVACNPACFITQLLPVKRQLGFYNWTSRLKSHINPTGTVLLQLENTMQTSLKDLL |  |  |  |  | − (<0.5 relative activity to Rd7BB (SEQ ID NO: 44)) | − (<0.5 relative activity to Rd7BB (SEQ ID NO: 44)) | − (<0.5 relative activity to Rd7BB (SEQ ID NO: 44))
